B1: WW domain-containing transcription regulator protein 1, residues 116 to 162; numbered along this chain, Q9GZV5 (parent)
chain: QSYDVTDELPLPPGWEMTFTATGQRYFLNHIEKITTWQDPRKAMNQP

± gives the uncertainty stated by the source.

This data set covers variants of B1. The data set can be described thus: abundance fitness (aPCA) (normalised: wild type 0, dead -1); higher = more abundant; growth selection in yeast, the domain comes from the species named. The note with it: Homo sapiens.
Turning to H30P, the abundance fitness was -0.218 ± 0.041.
With H30Q the figure was -0.076 ± 0.033; with H30K, -0.05 ± 0.044.
As to H30A, the abundance fitness is -0.152 ± 0.026.
With H30T the figure was -0.106 ± 0.034; with H30V, -0.226 ± 0.025.
For the variant H30L, the abundance fitness is -0.344 ± 0.035.
The same measure for H30D: -0.247 ± 0.041; for H30G: -0.3 ± 0.027.
The same measure for H30M: -0.259 ± 0.026; for H30S: -0.091 ± 0.027.
Regarding H30W, the abundance fitness was -0.378 ± 0.038.
For the variant H30F, the abundance fitness is -0.484 ± 0.04.
The same measure for H30C: -0.333 ± 0.046.
With H30R the figure was -0.075 ± 0.029.
For H30N, the abundance fitness is -0.088 ± 0.049.
With H30Y the figure was -0.338 ± 0.052.
With A43D the figure was 0.071 ± 0.048.
The same measure for A43E: -0.018 ± 0.036.
A43C: the abundance fitness is -0.056 ± 0.035.
For A43F, the abundance fitness is -0.016 ± 0.054.
The same measure for W37V: -0.348 ± 0.034; for W37N: -0.364 ± 0.051; for W37P: -0.51 ± 0.044.
The same measure for W37R: -0.392 ± 0.03; for W37D: -0.481 ± 0.057; for W37K: -0.305 ± 0.026.
W37H: the abundance fitness is -0.402 ± 0.04.
The same measure for W37S: -0.324 ± 0.029; for W37Y: -0.073 ± 0.047; for W37L: -0.296 ± 0.026.
On to W37F, for which the abundance fitness is -0.047 ± 0.041.
With W37E the figure was -0.244 ± 0.032; with W37C, -0.52 ± 0.065; with W37M, -0.265 ± 0.041.
With W37A the figure was -0.376 ± 0.028; with W37Q, -0.328 ± 0.042; with Q38T, -0.095 ± 0.031.
With Q38D the figure was -0.129 ± 0.033; with Q38G, -0.264 ± 0.028.
Q38I: the abundance fitness came to 0.005 ± 0.045.
With Q38C the figure was -0.085 ± 0.025.
With Q38N the figure was -0.104 ± 0.032; with Q38V, -0.108 ± 0.036.
With Q38A the figure was -0.103 ± 0.032; with Q38M, -0.044 ± 0.028; with Q38S, -0.109 ± 0.026.
With Q38K, the abundance fitness was -0.037 ± 0.035.
The same measure for Q38P: -0.879 ± 0.073; for Q38R: -0.017 ± 0.023; for Q38E: -0.117 ± 0.027.
The same measure for Q38H: -0.096 ± 0.048; for Q38L: -0.031 ± 0.025; for Q38F: -0.086 ± 0.042.
The same measure for Q38W: -0.112 ± 0.033.
Consider F27R, for which the abundance fitness is -0.761 ± 0.033.
The same measure for F27P: -0.946 ± 0.13; for F27S: -0.579 ± 0.057.
As for F27K, the abundance fitness is -0.818 ± 0.2.
With F27Q the figure was -0.977 ± 0.14; with F27Y, -0.027 ± 0.03.
With F27C the figure was -0.825 ± 0.05.
With F27A the figure was -0.777 ± 0.034.
Take F27N: the abundance fitness was -0.859 ± 0.096.
The same measure for F27G: -0.613 ± 0.048; for F27L: -0.841 ± 0.046.
Consider F27M, for which the abundance fitness was -0.904 ± 0.035.
In the case of F27T, the abundance fitness was -0.793 ± 0.067.
On to F27I, for which the abundance fitness was -0.935 ± 0.066.
The same measure for F27H: -0.707 ± 0.2.
The same measure for F27W: -0.13 ± 0.049; for R41Q: -0.447 ± 0.074.
For the variant R41A, the abundance fitness was -0.5 ± 0.036.
With R41K the figure was -0.688 ± 0.042.
In the case of R41P, the abundance fitness is -0.785 ± 0.068.
The same measure for R41C: -0.689 ± 0.086; for R41M: -0.703 ± 0.099; for R41F: -0.902 ± 0.25.
In the case of R41Y, the abundance fitness was -1.11 ± 0.43.
As for R41D, the abundance fitness was -0.806 ± 0.061.
Consider R41V, for which the abundance fitness is -0.518 ± 0.03.
The same measure for R41G: -0.628 ± 0.034; for R41I: -0.603 ± 0.094.
With R41N the figure was -0.505 ± 0.064; with R41E, -0.73 ± 0.05; with R41T, -0.4 ± 0.042.
In the case of R41W, the abundance fitness is -0.689 ± 0.069.
As to R41H, the abundance fitness is -0.719 ± 0.053.
For the variant R41L, the abundance fitness is -0.747 ± 0.062.
Consider T36H, for which the abundance fitness is -1.03 ± 0.09.
With T36A the figure was -0.377 ± 0.04; with T36K, -0.954 ± 0.12; with T36N, -0.754 ± 0.09.
The same measure for T36R: -0.858 ± 0.058.
With T36C the figure was -0.305 ± 0.052; with T36F, -1.05 ± 0.28; with T36W, -0.986 ± 0.066.
As to T36I, the abundance fitness was -0.831 ± 0.088.
With T36G the figure was -0.775 ± 0.038; with T36E, -0.722 ± 0.031; with T36D, -0.816 ± 0.073.
The same measure for T36M: -0.532 ± 0.033; for T36S: -0.224 ± 0.044; for T36Y: -0.992 ± 0.21.
With T36V the figure was -0.736 ± 0.04; with T36L, -1.02 ± 0.1.
In the case of T36Q, the abundance fitness was -0.376 ± 0.051.
The same measure for I31Y: -0.166 ± 0.1; for I31F: -0.14 ± 0.16; for I31P: -0.331 ± 0.23.
The same measure for I31W: -0.08 ± 0.067; for I31R: -0.06 ± 0.06.
The same measure for I31G: -0.273 ± 0.063; for I31N: -0.162 ± 0.23.
In the case of I31A, the abundance fitness was -0.174 ± 0.068.
The same measure for I31L: -0.375 ± 0.16; for I31V: -0.094 ± 0.074; for I31T: -0.011 ± 0.083.
With I31S the figure was -0.182 ± 0.099.
The same measure for I34V: -0.102 ± 0.031; for I34G: -0.634 ± 0.029; for I34L: -0.089 ± 0.027.
Take I34N: the abundance fitness is -0.343 ± 0.063.
The same measure for I34Q: -0.158 ± 0.028.
For the variant I34C, the abundance fitness is -0.078 ± 0.035.
With I34H the figure was -0.324 ± 0.059; with I34E, -0.265 ± 0.028; with I34T, -0.047 ± 0.048.
For the variant I34P, the abundance fitness is -0.813 ± 0.034.
Take I34A: the abundance fitness was -0.304 ± 0.031.
The same measure for I34M: -0.15 ± 0.045; for I34K: -0.35 ± 0.067; for I34R: -0.223 ± 0.029.
The same measure for I34D: -0.454 ± 0.051.
The same measure for I34F: 0.014 ± 0.026; for I34Y: -0.172 ± 0.054.
In the case of P40T, the abundance fitness was -0.857 ± 0.04.
With P40K the figure was -0.834 ± 0.13; with P40I, -0.97 ± 0.17; with P40D, -0.914 ± 0.14.
For the variant P40Q, the abundance fitness is -0.774 ± 0.053.
The same measure for P40A: -0.767 ± 0.077; for P40F: -1.09 ± 0.4.
With P40R the figure was -0.999 ± 0.063; with P40Y, -1.07 ± 0.14.
Turning to P40C, the abundance fitness was -0.92 ± 0.17.
The same measure for P40S: -0.983 ± 0.064; for P40W: -1 ± 0.069; for P40E: -0.757 ± 0.086.
The same measure for P40L: -0.987 ± 0.06.
As for P40H, the abundance fitness is -0.988 ± 0.17.
The same measure for P40N: -0.796 ± 0.086.
The same measure for R25F: -0.451 ± 0.073; for R25T: -0.295 ± 0.051.
The same measure for R25M: -0.232 ± 0.054.
In the case of R25N, the abundance fitness is -0.448 ± 0.074.
The same measure for R25G: -0.37 ± 0.03; for R25K: -0.016 ± 0.044.
The same measure for R25H: -0.385 ± 0.069; for R25E: -0.26 ± 0.04; for R25S: -0.203 ± 0.04.
Take R25A: the abundance fitness was -0.261 ± 0.05.
With R25Y the figure was -0.246 ± 0.065; with R25W, -0.64 ± 0.031.
The same measure for R25D: -0.934 ± 0.13; for R25Q: -0.116 ± 0.033; for R25I: -0.024 ± 0.057.

Values taken from the Human Domainome abundance scans (Beltran et al. 2025).
